Test results published in US20250186562A1 (University of California, published 2025).
No end group written: not given here. fluorescein = fluorescein attached to the C-terminus

Legend:
[1] = target: T1, Purified GST (glutathione S-transferase) (UniProt P08515 1-218 = GST); assay: fluorescence polarization, GST titrated into 9 nM tracer
T1 construct: Control protein in the FP assay; also called GST alone
Text: The FP assay uses a tetrapeptide with a sequence arginine-isoleucine-phenylalanine-serine (RIFS) with fluorescein attached to the C-terminus as tracer that was previously shown to bind to the Ubr-boxes of Ubr1 and Ubr2 with similar binding affinity. Assays were developed in 384-well plates, which were read on a Clariostar Reader. Signal-to-background ratio (S/B) was optimized by varying concentrations of GST-Ubr-box and tracer concentrations. GST-fusion proteins were used due to its larger size than Ubr-box alone to increase the FP effect. […] The optimized condition includes receptor concentration [GST-UBR1]=2 μM, tracer concentration [tracer]=9 nM, and the highest concentration of unlabeled peptidomimetic compound competitors at 200 μM with 3× serial dilutions.

[2] = target: T2, GST-UBR1 fusion protein (GST-Ubr-box of Ubr1) (human); assay: fluorescence polarization, GST-Ubr-box titrated into 9 nM tracer
T2 construct: GST fusion used as such in the FP assay
T2 sequence (chain, as listed by the source limits assumed): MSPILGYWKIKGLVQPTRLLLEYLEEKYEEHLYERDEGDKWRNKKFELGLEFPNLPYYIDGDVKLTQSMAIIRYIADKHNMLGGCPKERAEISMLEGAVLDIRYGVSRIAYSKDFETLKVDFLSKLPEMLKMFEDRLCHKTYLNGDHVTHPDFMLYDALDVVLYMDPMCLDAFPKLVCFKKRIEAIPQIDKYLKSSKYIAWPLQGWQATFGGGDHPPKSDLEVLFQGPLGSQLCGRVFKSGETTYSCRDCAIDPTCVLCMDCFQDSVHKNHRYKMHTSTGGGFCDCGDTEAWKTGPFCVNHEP

[3] = target: T3, GST-UBR2 fusion protein (GST-Ubr-box of Ubr2) (human); assay: as above
T3 construct: GST fusion used as such in the FP assay
T3 sequence (chain, as listed by the source limits assumed): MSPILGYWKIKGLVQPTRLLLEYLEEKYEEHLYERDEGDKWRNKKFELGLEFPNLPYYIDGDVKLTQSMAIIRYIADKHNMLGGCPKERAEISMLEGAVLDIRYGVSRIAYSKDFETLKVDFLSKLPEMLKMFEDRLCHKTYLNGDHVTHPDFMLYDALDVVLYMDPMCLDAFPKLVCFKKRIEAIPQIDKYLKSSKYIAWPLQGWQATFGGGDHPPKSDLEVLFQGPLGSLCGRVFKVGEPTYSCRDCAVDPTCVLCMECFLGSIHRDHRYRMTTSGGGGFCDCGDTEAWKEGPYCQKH

GST-Ubr-box of Ubr4 = target: T4, GST-Ubr-box of Ubr4 (UniProt Q5T4S7 1656-1729); assay: as above
T4 construct: domain: Ubr-box; not shown: glutathione S-transferase (GST) tag
T4 sequence (Q5T4S7 1656-1729): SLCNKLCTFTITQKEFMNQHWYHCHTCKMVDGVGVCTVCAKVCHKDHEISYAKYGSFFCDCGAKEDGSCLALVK

GST-Ubr-box of Ubr5 = target: T5, GST-Ubr-box of Ubr5 (UniProt O95071 1177-1245); assay: as above
T5 construct: domain: Ubr-box; not shown: glutathione S-transferase (GST) tag
T5 sequence (looked up): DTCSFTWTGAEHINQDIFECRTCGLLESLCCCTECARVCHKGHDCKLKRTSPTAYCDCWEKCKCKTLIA

T1 sequence (P08515 whole entry): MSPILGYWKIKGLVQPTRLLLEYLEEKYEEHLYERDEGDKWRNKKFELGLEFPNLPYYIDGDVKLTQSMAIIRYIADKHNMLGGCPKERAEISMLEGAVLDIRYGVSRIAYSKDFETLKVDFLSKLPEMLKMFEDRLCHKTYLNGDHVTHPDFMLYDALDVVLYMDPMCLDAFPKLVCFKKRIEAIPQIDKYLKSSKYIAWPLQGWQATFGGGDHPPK

B1: tetrapeptide arginine-isoleucine-phenylalanine-serine (RIFS) with fluorescein attached to the C-terminus (peptide)
peptide: RIFS-fluorescein
notes: FP tracer, used at 9 nM; also called tracer
B1: no binding [1]; binds [2]; binds [3]. B1: no binding (GST-Ubr-box of Ubr4); no binding (GST-Ubr-box of Ubr5).
